Test results taken from patent US20080095824A1, “Delivery of drugs from sustained release devices implanted in myocardial tissue or in the pericardial space” (Durect Corporation, priority 2001, published 2008).
Read-outs that look alike come from different tables or passages of the source.

What was measured:
[1] = In vitro release from SAIB depot of Example 2A; assay type: physicochemical; details: SAIB:benzyl benzoate:DL-PLG 83:12:5 depot, 500 μL in PBS pH 7.4, 37° C.
Method: In this embodiment sotalol (an anti-arrhythmic) is delivered from a depot comprising sucrose acetate isobutyrate (SAIB). A formulation is prepared by mixing SAIB (Eastman Chemical Co.) and benzyl benzoate (Aldrich Chemical Co.) and ploy (DL-lactide-co-glycolide) (DL-PLG) or DL-poly(lactide) (DLPL) in a ratio of 83:12:5 (weight basis) and stirring until a homogeneous mixture is achieved. 10 μg of sotalol is added to 500 μL of the SAIB:benzyl benzoate:DLPLG formulation.
The final depot formulation is prepared by passing the mixture repeatedly between a pair of 5 ml syringes equipped with needles. Multiple passes are performed until a solution is achieved. The final concentration of sotalol in the depot is 0.02 μg/ul.
To determine, in vitro, the release of […] from the formulation, 500 μL of the depot is placed in 750 μL of dissolution buffer (PBS, 0.01 M, pH 7.4 with sodium azide) in a 1.5 mL Eppendorf microcentrifuge tube. The formulations are incubated at 37° C. with no agitation. The entire dissolution buffer is removed and replaced with fresh buffer at the desired sampling times (0.25, 0.5, 1, 2, 3, 4, 5, 6, 24 hr and daily thereafter). The samples are assayed for protein concentration by ELISA. The release rate of drug from this depot is about 0.3 μg per day.

[2] = rat, in vivo
Method: (§1) Minipumps, filled with solutions of the substances to be tested, were primed in saline at 37° C. at least 4 hours, prior to connection to the catheter. Before installing pumps, pericardial fluid and orbital sinus blood was sampled, to serve as blanks. 7 days after pump installment, rats were sacrificed by exsanguination under pentobarbitone and pericardial fluid and blood collected. To check for possible loss of substances during infusion, remaining pump contents were analyzed. […] Doses were chosen to achieve concentrations that were readily measurable but without pharmacological effects (risk of bleeding in the case of heparin); similar doses were applied systemically and intrapericardially to be able to make a good comparison between the two routes of administration. Solvent was PBS, except for Texas Red FGF-2 and cortisol which were dissolved in a 10 mg/ml solution of RSA in PBS.

[3] = Time course of infusion into the pericardial space; assay type: in vivo, male Wistar rats; details: for plasma concentration over time: intrapericardial infusion, 7-day period (bFGF: day 3 through day 7)
Method: Substances were administered to the pericardial space of male Wistar rats weighing 250-300 grams by infusion via catheter for 1 week using an Alzet™ osmotic minipump at a volume rate of about 1 μl/hour. Blood and pericardial fluid samples were taken at various time points and the concentration of administered substances was measured fluorimetrically (for fluorescently labeled compounds) or by HPLC (for steroids). Concentration of fluorescently labeled compounds is expressed as fluorescent units/ml fluid.

[4] = Pharmacokinetics after intrapericardial or intra-arterial bolus injection; assay type: in vivo, rats; details: mean ± SE
Method: Immediately after implantation of the pericardial catheter, rats (still under anesthesia) were provided either with a catheter in the right femoral artery essentially as described (Smits et al., 1982). Rats were allowed to recover at least 2 days before experimentation> One hour before start of the experiment, 20 μl pericardial fluid was withdrawn using a Hamilton 1705 (Hamilton Bonaduz, Bonaduz, Switzerland) syringe and 50 μl of saline were injected into pericardial space to check the integrity of the pericardial catheter. Injections of volumes up to 0.2 ml were previously shown to be without hemodynamic effects (Veelken et al., 1990). Blood (0.15-0.25 ml) was collected in a syringe, containing a minimal volume of heparin (Organon Teknika, Boxtel, the Netherlands). Pericardial fluid was diluted 10 times in PBS and the blood was centrifuged for 20 minutes at 3500 rpm to obtain plasma. These samples served as blanks for later analyses. Experiments in which substances were applied intrapericardially were started by a 50 μl bolus injection of the test substances into pericardial space, followed by 20 μl saline to flush the catheter. If substances were applied systemically, experiments were started by a 100 μl bolus injection of the substances and subsequent injection of 300 μl saline into the femoral artery catheter. FITC rat IgG, (10 mg/ml), Texas Red RSA (10 mg/ml), and FITC heparin (1 mg/ml) were dissolved in PBS.
Pericardial fluid (20 μl) and blood samples were taken at various time points after injection. To substitute withdrawn pericardial fluid, 20 μl of saline was injected into pericardial space immediately after sampling. After every sample, the femoral artery catheter was flushed with 0.3 to 0.4 ml saline and filled with heparinized (5-10 IU/ml) saline. Plasma and pericardial fluid samples were stored at −20° C. until analysis.
Data were standardized for bodyweights. Pharmacokinetic analysis of the data for each animal was conducted using the GPAD (GraphPAD Software, San Diego, Calif.) software package. Data were fitted to the exponential equation Ct=A.e^−αt+B. e^−βt of one-(i.e. A is fixed at 0) and two compartment models. Fits were compared using F-tests and data were log transformed for model judgement.

[5] = in vivo; details: rat
Method: as §1

[6] = 7-day intrapericardial infusion (bFGF: days 3 to 7)
[7] = pericardial fluid after intrapericardial bolus injection
[8] = plasma after intra-arterial bolus injection

## CC(C)NCC(O)COc1cccc2ccccc12 (centres unmarked) [propranolol]
[1]
  release rate of drug from depot: about 0.3 μg per day

## Texas Red RSA: Texas Red-labelled rat serum albumin
[2]
  Peric/plasma ratio: 8.11 ± 2.60 (4)
[2]; iv
  Peric/plasma ratio: 0.98 ± 0.26 (4)
[3]; [6]
  ratio of concentration in pericardial fluid to concentration in plasma: 9-15
[3]; day 1 after the start of intrapericardial infusion
  concentration in the pericardial fluid: about 375 FU/ml
[3]; day 3, remained at this level through day 7
  concentration in the pericardial fluid: about 190 FU/ml
[3]
  plasma concentration over time: remained at a constant, low level
[4]; [7]
  Cl (clearance, Dose/AUC): 0.223 ± 0.054 mL/h/kg
  Vc (initial central compartment volume): 0.000892 ± 0.000207 L/kg
  t1/2α: 0.78 ± 0.233 h
  t1/2β: 9.82 ± 2.22 h
[4]; [8]
  Cl (clearance, Dose/AUC): 2.43 ± 0.166 mL/h/kg
  Vc (initial central compartment volume): 0.034734 ± 0.001761 L/kg
  t1/2α: 1.48 ± 0.247 h
  t1/2β: 18.87 ± 5 h

## Texas Red FGF-2: Texas Red-labelled fibroblast growth factor-2 (basic FGF)
[2]
  Peric/plasma ratio: 6.85 ± 1.61 (4)
[2]; iv
  Peric/plasma ratio: 1.01 ± 0.38 (2)
[3]; [6]
  ratio of concentration in pericardial fluid to concentration in plasma: 2-10
[3]; between day 3 and day 7 after the start of infusion
  concentration in the pericardial fluid over time: rose gradually
[3]
  plasma concentration over time: remained at a low level
[4]; [7]
  Cl (clearance, Dose/AUC): 0.483 ± 0.0198 mL/h/kg
  Vc (initial central compartment volume): 0.000497 ± 7e-05 L/kg
  t1/2α: 0.288 ± 0.0917 h
  t1/2β: 1.7 ± 0.317 h
[4]; [8]
  Cl (clearance, Dose/AUC): 5.05 ± 0.618 mL/h/kg
  Vc (initial central compartment volume): 0.03999 ± 0.000923 L/kg
  t1/2β: 5.63 ± 0.517 h

## Cortisol carbonic acid
[2]
  clearance derived from steady-state concentration (infusion dose rate/steady state concentration): 1.85 ± 0.211 mL/h/kg

## C[C@]12CCC(=O)C=C1CC[C@@H]1[C@@H]2[C@@H](O)C[C@@]2(C)[C@H]1CC[C@]2(O)C(=O)CO [Cortisol]
[2]; 7 days
  Peric. Fluid concentration: 1.59 ± 0.44
  Plasma concentration: 0.11 ± 0.03
[3]; [6]
  ratio of concentration in pericardial fluid to concentration in plasma: 12-50
[3]
  plasma concentration over time: remained at a constant, low level
[3]; male, Wistar, rat, pericardial fluid and plasma, other: intrapericardial infusion, 7-day intrapericardial infusion (bFGF: days 3 to 7), read-out: ratio of concentration in pericardial fluid to concentration in plasma
  Kp: 12 to 52
[5]; Peric/plasma ratio
  Kp at 7 days: 14.4 ± 0.55
[5]; concentrations in plasma lower than in pericardial fluid
  Kp at 7 days: ≥ 7
